Patent publication US20190077860A1 (EISAI R AND D MANAGEMENT, published 2019)
Numbering of substitutions follows the chain as printed.

B1: humanized antibody No. 92 (antibody, human IgG1, kappa)
heavy: QIQLVQSGSELKKPGASVKVSCKASGYTFTDYSMHWVRQAPGQGLKWMGWINTETGEPTYADDFKGRFVFSLDTSVSTAYLQISSLKAEDTAVYYCARIPLYYYGSRYWYFDVWGQGTTVTVSSASTKGPSVFPLAPSSKSTSGGTAALGCLVKDYFPEPVTVSWNSGALTSGVHTFPAVLQSSGLYSLSSVVTVPSSSLGTQTYICNVNHKPSNTKVDKRVEPKSCDKTHTCPPCPAPPAAAPSVFLFPPKPKDTLMISRTPEVTCVVVDVSHEDPEVQFNWYVDGVEVHNAKTKPREEQFNSTFRVVSVLTVVHQDWLNGKEYKCKVSNKGLPAPIEKTISKTKGQPREPQVYTLPPSREEMTKNQVSLTCLVKGFYPSDIAVEWESNGQPENNYKTTPPMLDSDGSFFLYSKLTVDKSRWQQGNVFSCSVMHEALHNHYTQKSLSLSPG
light: DIQMTQSPSSLSASVGDRVTITCRASENIYRNLAWYQQKPGKAPQLLLYAATNLADGVPSRFSGSGSGTDYTLTISSLQPEDFATYYCQHFWGTPWTFGQGTKVEIKRTVAAPSVFIFPPSDEQLKSGTASVVCLLNNFYPREAKVQWKVDNALQSGNSQESVTEQDSKDSTYSLSSTLTLSKADYEKHKVYACEVTHQGLSSPVTKSFNRGEC
notes: human Ig kappa; also called L1-6/HK4
B2: humanized antibody No. 140 (antibody, human IgG2)
heavy: QVQLVQSGSELKKPGASVKVSCKASGYTFTDYSMHWVRQAPGQGLKWMGWINTETGEPTYAQGFTGRFVFSLDTSVSTAYLQISSLKAEDTAVYYCARIPLYYYGSRYWYFDVWGQGTTVTVSSASTKGPSVFPLAPSSRSTSESTAALGCLVKDYFPEPVTVSWNSGALTSGVHTFPAVLQSSGLYSLSSVVTVPSSNFGTQTYTCNVDHKPSNTKVDKTVERKSCVECPPCPAPPAAAPSVFLFPPKPKDTLMISRTPEVTCVVVDVSHEDPEVQFNWYVDGVEVHNAKTKPREEQFNSTFRVVSVLTVVHQDWLNGKEYKCKVSNKGLPAPIEKTISKTKGQPREPQVYTLPPSREEMTKNQVSLTCLVKGFYPSDIAVEWESNGQPENNYKTTPPMLDSDGSFFLYSKLTVDKSRWQQGNVFSCSVMHEALHNHYTQKSLSLSPG
light: B1 light with Q45K, L48V
notes: human Ig kappa; also called L1-4/HA2
B3: humanized antibody No. 139 (antibody, human IgG2)
heavy: B2 heavy with K46E
light: B1 light with Q45K, L48V
notes: human Ig kappa; also called L1-4/HA1
B4: humanized antibody No. 138 (antibody, human IgG2)
heavy: B2 heavy with V2I
light: B1 light with Q45K, L48V
notes: human Ig kappa; also called L1-4/HA4
B5: humanized antibody No. 141 (antibody, human IgG2)
heavy: B2 heavy with K46E, Q62D, G63D, T65K
light: B1 light with Q45K, L48V
notes: human Ig kappa; also called L1-4/HK1
B6: humanized antibody No. 142 (antibody, human IgG2)
heavy: B2 heavy with Q62D, G63D, T65K
light: B1 light with Q45K, L48V
notes: human Ig kappa; also called L1-4/HK2

These binders were tested against T1, human EphA1 extracellular region-SEAP-His protein (human, UniProt P21709 26-547) (assay: ELISA).
T1 construct: extracellular domain; also called hEphA1-SEAP-His
T1 sequence (looked up): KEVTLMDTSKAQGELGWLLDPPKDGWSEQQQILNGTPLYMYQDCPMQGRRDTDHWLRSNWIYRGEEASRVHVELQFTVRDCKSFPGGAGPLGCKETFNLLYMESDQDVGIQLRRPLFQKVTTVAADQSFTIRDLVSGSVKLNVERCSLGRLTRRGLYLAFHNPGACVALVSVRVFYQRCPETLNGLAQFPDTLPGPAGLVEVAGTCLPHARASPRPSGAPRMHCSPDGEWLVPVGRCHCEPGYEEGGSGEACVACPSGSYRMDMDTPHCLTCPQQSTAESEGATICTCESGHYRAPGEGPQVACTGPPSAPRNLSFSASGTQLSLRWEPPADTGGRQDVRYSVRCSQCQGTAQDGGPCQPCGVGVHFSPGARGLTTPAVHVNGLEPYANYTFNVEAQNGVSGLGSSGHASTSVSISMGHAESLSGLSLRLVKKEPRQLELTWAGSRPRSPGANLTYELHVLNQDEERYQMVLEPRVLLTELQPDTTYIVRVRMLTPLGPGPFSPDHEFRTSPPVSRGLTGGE

Binder	A450 as % of hEphA4-SEAP-His
B1	7%
B2	5.5%
B3	5.7%
B4	5.2%
B5	5.3%
B6	5.6%

What follows are binders tested against T2, human EphA5 extracellular region-SEAP-His protein (human, UniProt P54756 25-573) (assay: ELISA).
T2 construct: extracellular domain; also called hEphA5-SEAP-His
T2 sequence (P54756 25-573): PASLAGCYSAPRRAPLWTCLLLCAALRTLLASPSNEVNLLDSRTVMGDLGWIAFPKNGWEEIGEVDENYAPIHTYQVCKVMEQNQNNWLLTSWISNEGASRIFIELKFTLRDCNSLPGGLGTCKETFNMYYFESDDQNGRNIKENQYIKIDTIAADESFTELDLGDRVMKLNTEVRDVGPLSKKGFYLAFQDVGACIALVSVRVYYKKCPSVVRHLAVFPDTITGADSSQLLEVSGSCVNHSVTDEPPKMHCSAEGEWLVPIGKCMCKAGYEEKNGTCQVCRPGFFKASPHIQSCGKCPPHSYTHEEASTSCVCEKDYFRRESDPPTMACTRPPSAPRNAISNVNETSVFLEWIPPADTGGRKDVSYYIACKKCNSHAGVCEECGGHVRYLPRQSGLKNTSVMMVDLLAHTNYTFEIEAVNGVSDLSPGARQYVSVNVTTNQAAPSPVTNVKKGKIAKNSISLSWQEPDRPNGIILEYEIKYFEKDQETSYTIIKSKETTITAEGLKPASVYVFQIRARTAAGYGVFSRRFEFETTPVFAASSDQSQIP

Binder	A450 as % of hEphA4-SEAP-His
B1	6.8%
B2	5.4%
B3	5.7%
B4	5.1%
B5	5.3%
B6	5.7%

Each binder was assayed against T3, human EphA7 extracellular region-SEAP-His protein (human, UniProt Q15375 28-555) (assay: ELISA).
T3 construct: extracellular domain; also called hEphA7-SEAP-His
T3 sequence (looked up): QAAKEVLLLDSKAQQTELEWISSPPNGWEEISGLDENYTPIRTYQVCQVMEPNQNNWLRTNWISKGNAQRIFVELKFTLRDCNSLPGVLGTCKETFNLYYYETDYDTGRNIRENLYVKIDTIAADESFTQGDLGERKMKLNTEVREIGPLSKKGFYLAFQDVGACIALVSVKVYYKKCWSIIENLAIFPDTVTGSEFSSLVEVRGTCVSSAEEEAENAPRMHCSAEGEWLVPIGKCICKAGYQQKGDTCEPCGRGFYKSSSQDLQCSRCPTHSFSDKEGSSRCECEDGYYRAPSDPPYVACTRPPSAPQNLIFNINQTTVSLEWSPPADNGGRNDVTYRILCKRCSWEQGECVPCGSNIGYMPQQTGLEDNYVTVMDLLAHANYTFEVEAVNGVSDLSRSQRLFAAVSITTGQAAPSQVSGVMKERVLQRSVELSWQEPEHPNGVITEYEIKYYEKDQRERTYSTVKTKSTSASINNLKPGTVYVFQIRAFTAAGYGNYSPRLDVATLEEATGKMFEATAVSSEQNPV

Binder	A450 as % of hEphA4-SEAP-His
B1	6.4%
B2	5.2%
B3	5.5%
B4	4.9%
B5	5.3%
B6	5.5%

Each binder was assayed against T4, human EphA8 extracellular region-SEAP-His protein (human, UniProt P29322 28-542) (assay: ELISA).
T4 construct: extracellular domain; also called hEphA8-SEAP-His
T4 sequence (looked up): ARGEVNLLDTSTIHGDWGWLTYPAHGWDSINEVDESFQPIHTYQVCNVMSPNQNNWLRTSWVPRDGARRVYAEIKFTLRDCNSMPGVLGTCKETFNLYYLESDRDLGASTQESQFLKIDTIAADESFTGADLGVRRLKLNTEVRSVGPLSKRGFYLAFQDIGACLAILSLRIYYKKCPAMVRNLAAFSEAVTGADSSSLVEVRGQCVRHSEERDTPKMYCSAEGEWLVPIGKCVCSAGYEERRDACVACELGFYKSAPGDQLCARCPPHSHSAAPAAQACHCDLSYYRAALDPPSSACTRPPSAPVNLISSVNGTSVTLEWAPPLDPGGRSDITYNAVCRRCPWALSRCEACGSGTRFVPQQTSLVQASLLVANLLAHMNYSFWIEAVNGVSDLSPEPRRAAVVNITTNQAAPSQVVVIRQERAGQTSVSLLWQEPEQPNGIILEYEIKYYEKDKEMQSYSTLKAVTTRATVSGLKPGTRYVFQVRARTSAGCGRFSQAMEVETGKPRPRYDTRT

Binder	A450 as % of hEphA4-SEAP-His
B1	6.7%
B2	5.4%
B3	6%
B4	5.4%
B5	5.5%
B6	5.7%

What follows are binders tested against T5, human EphB3 extracellular region-SEAP-His protein (human, UniProt P54753 34-559) (assay: ELISA).
T5 construct: extracellular domain; also called hEphB3-SEAP-His
T5 sequence (looked up): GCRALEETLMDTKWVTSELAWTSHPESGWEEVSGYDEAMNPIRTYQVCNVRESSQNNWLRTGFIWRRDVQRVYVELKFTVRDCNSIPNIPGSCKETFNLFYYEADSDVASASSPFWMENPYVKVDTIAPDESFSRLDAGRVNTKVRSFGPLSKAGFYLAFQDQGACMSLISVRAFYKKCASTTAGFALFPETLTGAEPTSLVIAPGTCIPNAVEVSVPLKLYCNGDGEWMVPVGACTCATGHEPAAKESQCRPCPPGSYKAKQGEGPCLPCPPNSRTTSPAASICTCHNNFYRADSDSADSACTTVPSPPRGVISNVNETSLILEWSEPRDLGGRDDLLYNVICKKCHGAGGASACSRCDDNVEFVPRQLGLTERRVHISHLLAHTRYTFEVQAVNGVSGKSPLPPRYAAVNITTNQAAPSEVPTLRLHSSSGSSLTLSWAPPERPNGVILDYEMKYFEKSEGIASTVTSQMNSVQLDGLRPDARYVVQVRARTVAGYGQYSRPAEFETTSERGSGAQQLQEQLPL

Binder	A450 as % of hEphA4-SEAP-His
B1	6.9%
B2	5.4%
B3	5.6%
B4	5.1%
B5	5.2%
B6	5.6%

These binders were tested against T6, human EphA4 extracellular region-SEAP-His protein (human, UniProt P54764 20-547) (assay: ELISA).
T6 construct: also called hEphA4-SEAP-His
T6 sequence (P54764 20-547): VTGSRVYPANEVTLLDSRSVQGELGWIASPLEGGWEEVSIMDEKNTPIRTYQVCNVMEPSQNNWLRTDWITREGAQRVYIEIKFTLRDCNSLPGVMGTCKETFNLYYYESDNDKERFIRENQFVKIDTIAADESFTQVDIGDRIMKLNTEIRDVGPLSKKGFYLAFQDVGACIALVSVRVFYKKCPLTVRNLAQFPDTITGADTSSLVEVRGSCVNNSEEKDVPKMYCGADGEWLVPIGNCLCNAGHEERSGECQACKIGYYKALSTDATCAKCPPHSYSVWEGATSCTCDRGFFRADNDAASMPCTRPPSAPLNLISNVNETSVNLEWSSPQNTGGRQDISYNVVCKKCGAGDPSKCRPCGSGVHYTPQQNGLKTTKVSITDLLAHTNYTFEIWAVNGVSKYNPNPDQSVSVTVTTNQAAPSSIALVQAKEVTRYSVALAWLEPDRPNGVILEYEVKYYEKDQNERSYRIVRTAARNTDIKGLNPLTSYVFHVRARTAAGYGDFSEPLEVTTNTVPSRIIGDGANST

Binder	A450 as % of hEphA4-SEAP-His
B1	100%
B2	100%
B3	100%
B4	100%
B5	100%
B6	100%
